Test results as given in patent publication US20160346411A1.
Where “and” joins values, the source holds several entries; their conditions need not be identical. Identical values can stand only once. Values belong to the molecule of their own block, whether it stands above or below them. Numbered stars: 1 amine (or outer) side, 2 acyl side, 3 side chain; on linkers, the order of the positions; unused ones are H or OH. Bridge positions count the residues as written; N and C are the ends. TRITC = tetramethylrhodamine dye; Cysteamine = C(CS[*:2])N[*:1]; Ahx = NCCCCCC(=O)O

Columns and labels:
TRITC-Tn6-MDS = test system: T1, TRITC-Tn6-MDS
T1 sequence: QWECPYGLCWIQ

[1] = biological target: DD(E), soluble protein fragment of fibrin (human) (UniProt P02671); assay: competitive displacement of TRITC-Tn6 (0.1 µM) from DD(E) (2 µM), fluorescence anisotropy
[2] = biological target: DD(E), soluble protein fragment of fibrin (human) (UniProt P02671); assay: competitive displacement of TRITC-Tn6 (0.1 µM) from DD(E) (2 µM), fluorescence anisotropy, least-squares regression
clotted fibrin (human) [3] = assay: T1-weighted MR at 1.5T: percent change of signal-intensity ratio, phantom 2 (clotted fibrin) against phantom 1 (fibrinogen), 10 µM probe
clotted fibrin (human) [4] = assay: T1-weighted MR at 1.5T: percent change of signal-intensity ratio, phantom 3 (pelleted fibrin) against phantom 1 (fibrinogen), 10 µM probe, region of the pellet
clotted fibrin (human) [5] = assay: T1-weighted MR at 1.5T: percent change of signal-intensity ratio, phantom 3 (pelleted fibrin) against phantom 1 (fibrinogen), 10 µM probe, liquid above the pellet
clotted fibrin (human) [6] = assay: T1-weighted MR at 1.5T: percent change of signal-intensity ratio, phantom 2 (clotted fibrin) against phantom 1 (fibrinogen), 10 µM probe; 1 pre-treated with PDI and DTT is converted to EP-2104R
clotted fibrin (human) [7] = assay: T1-weighted MR at 1.5T: percent change of signal-intensity ratio, phantom 3 (pelleted fibrin) against phantom 1 (fibrinogen), 10 µM probe, region of the pellet; 1 pre-treated with PDI and DTT is converted to EP-2104R
clotted fibrin (human) [8] = assay: T1-weighted MR at 1.5T: percent change of signal-intensity ratio, phantom 3 (pelleted fibrin) against phantom 1 (fibrinogen), 10 µM probe, liquid above the pellet; 1 pre-treated with PDI and DTT is converted to EP-2104R
[9] = biological target: DD(E), soluble protein fragment of fibrin (human) (UniProt P02671); assay: fluorescence anisotropy, serial dilution of DD(E) mixed with the probe; reference is cyclic TRITC-Tn6
[10] = biological target: DD(E), soluble protein fragment of fibrin (human) (UniProt P02671); assay: direct titration of the TRITC probe (0.1 µM) with DD(E) up to about 32 µM, fluorescence anisotropy plotted as % probe bound

Sequence of clotted fibrin (human) (P50402 whole entry, the tested form may be a part): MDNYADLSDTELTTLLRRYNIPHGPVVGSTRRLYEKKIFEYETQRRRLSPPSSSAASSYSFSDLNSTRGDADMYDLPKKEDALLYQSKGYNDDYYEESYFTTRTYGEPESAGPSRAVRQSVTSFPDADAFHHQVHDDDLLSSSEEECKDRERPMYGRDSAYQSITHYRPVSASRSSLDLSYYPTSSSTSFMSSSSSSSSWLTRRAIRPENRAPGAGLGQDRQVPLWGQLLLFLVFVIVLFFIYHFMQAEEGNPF

Molecule: protein disulfide isomerase
conversion of Compound 1 to EP-2104R, followed by 1/T1 in the presence of 12.0 µM DD(E) (Compound 1): The rate of conversion of 1 to EP-2104R was most rapid for the reaction performed under condition D in which both PDI and DTT were present simultaneously
conversion of Compound 1 to EP-2104R, seen as fall of the anisotropy of TRITC-Tn6 on DD(E) (Compound 1): with 1 mg/L PDI plus 10 µM DTT the anisotropy falls from about 0.25 to about 0.183 in about 1170 s, with DTT alone only to about 0.233; with PDI alone it stays at about 0.25 like untreated
conversion of Compound 1 to EP-2104R, seen as rise of 1/T1 with 12.0 µM DD(E) (Compound 1): with 3 mg/L PDI plus 10.0 µM DTT 1/T1 rises from about 0.69 to about 0.825 s-1 in about 3750 s, with DTT alone from about 0.65 to about 0.715 s-1; with PDI alone it stays at about 0.64 s-1 like untreated
conversion of the mixed-disulfide form to the cyclized form, followed by LC-MS (TRITC-Tn6-MDS): PDI alone does not promote cyclization of the probe, but PDI in the presence of a reducing agent like dithiothreitol (DTT) promotes rapid conversion of the probe to the desired product compared to DTT alone
real-time change in fluorescence anisotropy in the presence of 2 µM DD(E) (TRITC-Tn6-MDS): it is evident that only when both PDI and DTT are present simultaneously that the probe is efficiently activated

Molecule: {TRITC-Ahx}-QWECPYGLCWIQ-NH2 (disulfide 4-9) [TRITC-Tn6 peptide (cyclic form)]
Kd [10]: 0.51 µM

More lines, now with the values ahead:

IC50 (read off the curve) [1]: 2 µM
Kd [2]: 160 nM
%Δ SIR (clotted fibrin (human) [3]): 8% and 11%
%Δ SIR, lower region (clotted fibrin (human) [4]): 49% and 69%
%Δ SIR, upper region (clotted fibrin (human) [5]): -24% and -21%
%Δ SIR (clotted fibrin (human) [6]): 12%
%Δ SIR, lower region (clotted fibrin (human) [7]): 36%
%Δ SIR, upper region (clotted fibrin (human) [8]): -22%
Molecule: EP-2104R (peptide)

fold Kd relative to the cyclic form [9]: 20 fold
Kd [10]: 9.65 µM
Molecule: {TRITC-Ahx}-QWEC(Cysteamine)PYGLC(Cysteamine)WIQ-NH2 [TRITC-Tn6-MDS]
